The results in this text go back to US20240207421A1, “NERVE TARGETING PEPTIDES AND METHODS OF USE” (ALUME BIOSCIENCES, INC., priority 2020, published 2024).

The experiment deals with Laminin 421/521. The experiment is described as follows: phage display, NGS count.
In the case of LLAGPFR, the Count is 44.

DDLLTAPRLGVW came in with a Count of 54.

KQELSDNLASHR: the Count was determined as 50.

Regarding GRTIHSM, the Count came to 95.

QTLQTRH gave a Count of 44.

CFQPKMNSC returned a Count of 42.

SFRNLEKLSLWS gave a Count of 50.

ASHSRPLMNYAP: the Count came to 49.

Molecule AWNGNRS displayed a Count of 47.

In turn, SWQMRSY came in with a Count of 48.

GDLWNVP gave a Count of 51.

As to CWSGNSRSC, the Count is 42.

KISMNRLHANFT: the Count was determined as 110.

SLAVANTRFMIR returned a Count of 49.

SNPKHVSSLGQM returned a Count of 40.

The molecule GSTTHPHFGLPG had a Count of 40.

The molecule HSFLGAR had a Count of 44.

As for YTPRNQL, the Count came to 55.

ANRYLAS came in with a Count of 40.

The molecule GAMMNSNNLVAR yielded a Count of 43.

HASNQRV: the Count was 93.

For VPQIRIK, the Count came to 47.

For the molecule DGQVSDHSYVQW, the Count was 101.

Molecule CLKDTHLNC showed a Count of 40.

With AQGVWWSEWFAP, the Count worked out at 42.

GSGFRNEEHSAH displayed a Count of 51.

In turn, CNHLTQKLC displayed a Count of 45.

For the molecule CSLANPATC, the Count came to 52.

The molecule GQPRNIHLPGTH had a Count of 40.

Turning to EYWHQRGSWFHR, the Count turned out to be 55.

With GEPLTRFPNSDS, the Count is 52.

Consider WPVRNLL, for which the Count came to 67.

Turning to KPILWNRSLNAL, the Count came to 52.

With GFADVIHRKWSS, the Count was 53.

Molecule GPKNHHQ returned a Count of 51.

FPLKIRT registered a Count of 42.

As to CSVWNSGNC, the Count amounted to 43.

ETYKVTRVISPW: the Count came out at 50.

Take QGHPFIY: the Count was 40.

RLVTASMVSPSF showed a Count of 95.

Take EGHVWSEYTWGT: the Count was 50.

As to GDLLLKR, the Count was found to be 47.

The molecule WAFKAPQ registered a Count of 61.

In the case of HQSLAGVPWSRH, the Count was 53.

Consider AKTQAPSNWSGV, for which the Count amounted to 43.

With CHQRQQTYC, the Count turned out to be 55.

Molecule WGANTTGRTHGG gave a Count of 40.

For the molecule CGITQTTTC, the Count came out at 55.

Molecule LARSSIMAANNV displayed a Count of 42.

On to YHLGPNQKMRTS, for which the Count stood at 48.

NNNAAMQNHGVR gave a Count of 51.

TFAAAQAELIMV yielded a Count of 38.

WEEHRVEILPDV had a Count of 38.

SDRGKTVLHGQI displayed a Count of 54.

Molecule WTKHNTPAHHLS registered a Count of 89.

For the molecule GSLDMGNNKQPV, the Count is 62.

In the case of LQSNAADHHQGM, the Count stood at 75.

Regarding ALGGEPRKAYQR, the Count turned out to be 45.

Molecule CKWTQLWGC gave a Count of 40.

ADMPQMTLKYGV showed a Count of 47.

For the molecule GGGYHIFGPLVT, the Count is 43.

In the case of ATSKYPNSWAQT, the Count amounted to 80.

In turn, CTGRISKHC displayed a Count of 43.

The molecule CTSKLARHC displayed a Count of 45.

Molecule RAQAHQV displayed a Count of 51.

Take QTRWDDGSYQIS: the Count is 49.

Take VPVFLDQARVMK: the Count came to 53.

Regarding DRLTPITWDWSR, the Count came out at 86.

GHPWTEIDFMSS yielded a Count of 50.

In the case of SGWEGKTHQGVR, the Count was found to be 69.

Regarding GWIQDTFVLGRS, the Count came to 40.
